Test results as given in patent publication US20150239980A1 (NEOTOPE BOSCIENCES, published 2015).

Key:
[1] = molecular target: T1, recombinant hMCAM-His (human, UniProt P43121 24-559); assay: ForteBio Octet Red, hMCAM-His analyte; Expt. #2; vs rodent 2107
T1 construct: not shown: His tag
T1 chain: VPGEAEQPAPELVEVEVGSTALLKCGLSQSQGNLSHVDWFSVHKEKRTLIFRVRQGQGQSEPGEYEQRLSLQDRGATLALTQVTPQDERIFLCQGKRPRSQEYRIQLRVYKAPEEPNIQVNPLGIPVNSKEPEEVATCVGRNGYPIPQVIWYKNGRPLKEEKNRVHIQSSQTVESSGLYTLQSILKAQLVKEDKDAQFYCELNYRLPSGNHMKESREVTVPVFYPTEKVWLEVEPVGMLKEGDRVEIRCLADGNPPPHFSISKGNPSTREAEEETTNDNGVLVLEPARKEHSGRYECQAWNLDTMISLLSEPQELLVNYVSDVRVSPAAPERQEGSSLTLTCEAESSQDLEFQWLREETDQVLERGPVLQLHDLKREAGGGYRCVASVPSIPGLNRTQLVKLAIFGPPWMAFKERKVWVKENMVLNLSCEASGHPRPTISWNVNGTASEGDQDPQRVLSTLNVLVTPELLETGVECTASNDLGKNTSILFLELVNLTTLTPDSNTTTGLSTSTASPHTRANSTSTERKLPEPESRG
Procedure: (§1) The affinities were measured using the ForteBio Octet Red. Anti-human Fc sensors were used to capture the humanized antibodies, and several concentrations of hMCAMHis analyte were used to determine the affinity using a 1:1 fitting model.

[2] = molecular target: T1, recombinant hMCAM-His; assay: ForteBio Octet Red, hMCAM-His analyte; Expt. #1; vs rodent 2107
Procedure: as §1

[3] = molecular target: T1, recombinant hMCAM-His; assay: competitive ELISA on hMCAM-His, competitor biotinylated rodent or chimeric 2107; Expt. #1; vs rodent 2107
Procedure: (§2) ELISA plates were coated with recombinant hMCAM-His, and blocked with casein buffer to prevent non-specific binding. Biotinylated rodent or chimeric antibody was added at a subsaturating concentration, in the presence or absence of 3× increasing concentrations of unlabeled competitor (humanized antibody, rodent, or chimeric). After washing to remove unbound antibody, streptavidin HRP was added to allow detection of the biotinylated antibody. The ELISA was developed with TMB substrate and the OD450 was measured. The IC50 of the unlabeled competitor was determined using the GraphPad Prism5 software.

[4] = molecular target: T1, recombinant hMCAM-His; assay: ForteBio Octet Red, hMCAM-His analyte; Forte column 2; vs rodent 2107
Procedure: as §1

[5] = molecular target: T2, human MCAM (melanoma cell adhesion molecule) expressed on transfected CHO cells (human, UniProt P43121 24-646); assay: flow cytometry, human MCAM CHO cells preincubated with antibody, competitor recombinant human laminin 411 at 20 ug/ml
T2 construct: also called hMCAM; CD146
T2 chain: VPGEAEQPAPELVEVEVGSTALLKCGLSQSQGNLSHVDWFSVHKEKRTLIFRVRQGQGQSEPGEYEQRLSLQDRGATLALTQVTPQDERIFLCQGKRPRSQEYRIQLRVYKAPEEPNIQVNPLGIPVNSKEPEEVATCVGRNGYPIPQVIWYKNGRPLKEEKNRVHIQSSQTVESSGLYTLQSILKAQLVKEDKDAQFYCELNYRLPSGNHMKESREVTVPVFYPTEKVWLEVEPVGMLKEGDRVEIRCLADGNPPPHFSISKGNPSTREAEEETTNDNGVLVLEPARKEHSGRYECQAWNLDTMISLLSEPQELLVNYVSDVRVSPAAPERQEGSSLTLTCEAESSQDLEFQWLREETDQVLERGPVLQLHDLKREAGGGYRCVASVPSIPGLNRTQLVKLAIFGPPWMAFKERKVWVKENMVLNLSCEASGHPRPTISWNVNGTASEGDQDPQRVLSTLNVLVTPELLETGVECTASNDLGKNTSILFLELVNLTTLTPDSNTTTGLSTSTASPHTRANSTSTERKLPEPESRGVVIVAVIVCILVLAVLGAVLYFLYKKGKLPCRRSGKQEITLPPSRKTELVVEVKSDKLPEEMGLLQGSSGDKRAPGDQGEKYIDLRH
Procedure: The 87 independent mouse fusion clones and 26 independent rat fusion clones described in Example 10 above as being capable of (i) binding to human MCAM, and (ii) blocking the interaction between human MCAM and the α-4 chain of laminin were further characterized as follows. First, IC50 quantitation for the ability of the monoclonal antibody to block the binding of human MCAM to the α-4 chain of laminin was determined as follows. CHO cells expressing human MCAM were incubated with an anti-human MCAM antibody (at various concentrations) for 30 minutes at 4 degrees Celsius. […] Unbound laminin was then washed away, and the laminin bound to the surface of the cells was detected with fluorescently labeled anti-laminin antibodies. After washing, the amount of laminin bound to the surface was detected by flow cytometry, and IC50s were calculated based on the mean fluorescent intensity.
These six anti-MCAM monoclonal antibody clones are herein referred to as (i) the mouse anti-human MCAM monoclonal clones 1174.1.3, 1414.1.2, 1415.1.1, and 1749.1.3, and (ii) the rat anti-human MCAM monoclonal antibody clones 2120.4.19 and 2107.4.10. […] As such, each of these specific monoclonal antibodies was very capable of binding to human MCAM and inhibiting the interaction of cell-expressed human MCAM with its α-4 laminin binding ligand.

[6] = molecular target: T1, recombinant hMCAM-His; assay: competitive ELISA on hMCAM-His, competitor biotinylated rodent or chimeric 2107; Expt. #2; vs rodent 2107
Procedure: as §2

[7] = molecular target: T1, recombinant hMCAM-His; assay: ForteBio Octet Red, hMCAM-His analyte; Forte column 1; vs rodent 2107
Procedure: as §1

[8] = molecular target: T2, human MCAM (melanoma cell adhesion …); assay: laminin/FACS on hMCAM CHO cells, competitor laminin 411; Expt#1; vs rodent 2107
Procedure: (§3) Following incubation for 30-45 minutes, the cells were washed and anti-laminin conjugated to AF650 (NovusBio) was added to detect the bound laminin. The cells were run on a flow cytometer to measure the laminin binding signal.

[9] = molecular target: T1, recombinant hMCAM-His; assay: competitive ELISA on hMCAM-His, competitor biotinylated rodent or chimeric 2107; vs rodent 2107
Procedure: as §2

[10] = molecular target: T2, human MCAM (melanoma cell adhesion …); assay: summary of laminin blocking assay on hMCAM CHO cells, competitor laminin 411; vs rodent 1749
Procedure: as §3

[11] = molecular target: T1, recombinant hMCAM-His; assay: competitive ELISA on hMCAM-His, competitor biotinylated rodent or chimeric 1749; Expt. #1; vs rodent 1749
Procedure: as §2

[12] = molecular target: T1, recombinant hMCAM-His; assay: ForteBio Octet Red, hMCAM-His analyte; Forte column 1; vs rodent 1749
Procedure: as §1

[13] = molecular target: T1, recombinant hMCAM-His; assay: summary of ForteBio and competitive ELISA on hMCAM-His; vs rodent 1749
Procedure: as §2, §1

[14] = molecular target: T1, recombinant hMCAM-His; assay: competitive ELISA on hMCAM-His, competitor biotinylated rodent or chimeric 1749; vs rodent 1749
[15] = molecular target: T1, recombinant hMCAM-His; assay: ForteBio Octet Red, hMCAM-His analyte; Expt. #1; vs rodent 1749
Procedure: as §1

[16] = molecular target: T1, recombinant hMCAM-His; assay: competitive ELISA on hMCAM-His, competitor biotinylated rodent or chimeric 1749; Expt. #2; vs rodent 1749
Procedure: as §2

[17] = molecular target: T2, human MCAM (melanoma cell adhesion …); assay: laminin/FACS blocking assay, % inhibition of laminin 411 binding to hMCAM-expressing CHO cells against antibody concentration; blocked ligand: laminin 411
Procedure: as §3

[18] = molecular target: T1, recombinant hMCAM-His; assay: ForteBio Octet Red, hMCAM-His analyte; Expt. #2; vs rodent 1749
Procedure: as §1

[19] = molecular target: T2, human MCAM (melanoma cell adhesion …); assay: laminin/FACS on hMCAM CHO cells, competitor laminin 411; Expt#2; vs rodent 1749
Procedure: as §3

[20] = molecular target: T2, human MCAM (melanoma cell adhesion …); assay: laminin/FACS on hMCAM CHO cells, competitor laminin 411; Expt#1; vs rodent 1749
Procedure: as §3

[21] = molecular target: T1, recombinant hMCAM-His; assay: ForteBio Octet Red, hMCAM-His analyte; Expt. #1; vs rodent 2120
Procedure: as §1

[22] = molecular target: T1, recombinant hMCAM-His; assay: summary of ForteBio, hMCAM-His; vs rodent 2120
Procedure: as §1

[23] = molecular target: T1, recombinant hMCAM-His; assay: competitive ELISA on hMCAM-His, competitor biotinylated rodent or chimeric 2120; Expt. #1; vs rodent 2120
Procedure: as §2

B1: rat anti-human MCAM monoclonal antibody clone 2107.4.10 (antibody, V domains shown)
VH: QVQLKESGPGLVQSSQTLSLTCTVSGFSLTSNGVSWVRQPPGKGLEWIAAISSGGSTYYNSAFKSRLSISRNTSKSQVLLKMNSLQTEDTGMYFCARHRPFYFDYWGQGVMVTVSS
VL: DIQVTQSPSLLSASVGDRVTLNCKGSQNIYKSLAWFRLKRGEAPKLLIYDANSLQTGIPSRFSGSGSGTDFTLTITSLQPEDVATYFCQQYYSGYTFGAGTKLELK
notes: rat hybridoma antibody; elsewhere '83 or 84'); also called rodent 2107; murine 2107.4.10.18 anti-MCAM antibody
In the case of B1, the “fold over rodent (Forte affinity)” value [1] is reported as 1 fold, the “fold over rodent (Forte affinity)” value [2] is reported as 1 fold and the “fold over rodent (competitive ELISA)” value [3] is reported as 1 fold. For the same binder, the “fold over rodent (Forte affinity)” value [4] was 1 fold, the IC50 [5] was 0.29 µg/mL and the “fold over rodent (competitive ELISA)” value [6] was 1 fold. For the same binder, the “fold over rodent (Forte affinity)” value [7] was 1 fold, the “fold over rodent (blocking, laminin/FACS)” value [8] was 1 fold and the “fold over rodent (competitive ELISA)” value [9] was 1 fold.

B2: h1749VH2 + h1749VL2 (antibody, human IgG1, V domains shown)
VH: EVQLVESGGGLVQPGGSLRLSCAASGFTFSSYIMSWVRQAPGKRLEWVATISSGGSSTYYPDSVKGRFTISRDNAKNSLYLQMNSLRAEDTAVYYCTRDDDYDVKVFAYWGQGTMVTVSS
VL: DIVMTQSPDSLAVSLGERATINCKSSRSLLNSRIRKNYLAWYQQKPGQPPKLLIYWASTRESGVPDRFTGSGSGTDFTLTISSLQAEDVAVYYCKQSYNLLTFGQGTKVEIK
notes: also called humanized 1749 conservative VH and VL
For B2, the “fold reduction in potency compared to the rodent” value [10] was less than 2 fold, the “fold over rodent (competitive ELISA)” value [11] was 1.28 fold and the “fold over rodent (Forte affinity)” value [12] was 0.7 fold. The “fold reduction in affinity compared to the rodent” value [13] was less than 2 fold, the “fold over rodent (competitive ELISA)” value [14] was 1.1 fold and the “fold over rodent (Forte affinity)” value [15] was 0.73 fold. The “fold over rodent (competitive ELISA)” value [16] was 1.46 fold, the “IC50 (read off the curve)” value [17] was roughly 0.4 µg/mL and the “fold over rodent (Forte affinity)” value [18] was 1.09 fold. The “fold over rodent (blocking, laminin/FACS)” value [19] was 1.7 fold and the “fold over rodent (blocking, laminin/FACS)” value [20] was 1.8 fold.

B3: h2120_VH3 + h2120_VL3 (antibody, human IgG1, V domains shown)
VH: QVTLKESGPVLVKPTETLTLTCTVSGFSLTSSGVSWVRQPPGKALEWIAAISSGGTTYYNSAFKSRLTISRDTSKSQVVLTMTNMDPVDTATYYCARRYGYGWYFDFWGQGTLVTVSS
VL: DIQMTQSPSSLSASVGDRVTINCKASQNIYNSLAWYQQKPGKAPKVLIFNANSLQTGIPSRFSGSGSGTDFTLTISSLQPEDFATYYCQQFYSGYTFGQGTKLEIK
In the case of B3, the “fold over rodent (Forte affinity)” value [21] is reported as 16.1 fold, the “fold reduction in affinity as measured by ForteBio” value [22] is reported as greater than 5 fold and the “fold over rodent (competitive ELISA)” value [23] is reported as 3.47 fold.
